Results published in patent US20230383295A1.

Target: integrin receptors
Experiment: cell-based or functional assay

HRP-filled vesicles in endothelial cells of Vtn^RGE mice compared to wildtype animals: 2 fold
Substance: vitronectin with RGD domain mutated to RGE (knock-in mouse line Vtn^RGE/RGE) (from UniProt P29788 20-478) (ligand)
